Results as given in patent US20070065429A1, “Nogo-receptor antagonists for the treatment of conditions involving amyloid plaques” (Biogen Idec MA Inc., priority 2003, published 2007).

Experiments:
[1] = system: Aβ peptides; assay: Aβ peptide binding to wells coated with purified sNgR-Fc
Experimental: We analyzed whether Aβ (1-28) binding competed for NgR binding with other known ligands for NgR by allowing 250 nM soluble AP-Aβ(1-28) or AP-Nogo (1-33) to bind to wells coated with purified sNgR310-Fc in the presence of various concentrations of competing free Aβ. […] We observed that the Aβ peptides bind to both sNgR310-Fc and sNgR344-Fc. […] However, Aβ(1-28) displaced Aβ-AP binding but not AP-Nogo-66 (1-33) or AP-OMgp binding in competition assays. The Aβ peptide may begin to displace AP-MAG very slightly at high concentrations in our experiments. Thus, the Aβ binding site on NgR appears largely distinct from that for the myelin ligands NogoA, OMgp and MAG. Consistent with this, the presence of Aβ had little effect on myelin or Nogo-66 inhibition of neurite outgrowth.

[2] = system: APPsw/PSEN-1(DeltaE9) double transgenic mice; assay: Intracerebroventricular infusion into APPsw/PSEN-1(DeltaE9) double transgenic mice; type: in vivo; conditions: 2.5 mg per mouse over 56 days
Description: To examine the role of the NgR/APP/AB interactions in vivo, sNgR310-Fc (a NgR antagonist; see International Patent Application PCT/US03/25004) was infused into APPsw/PSEN-1(DeltaE9) double transgenic mice (from Jackson Laboratories). The sNgR310-Fc protein contains the entire LRR ligand-binding of the NgR fused to the Fc portion of IgG. To administer sNgR310-Fc protein, 5-month-old mice were anesthetized with isoflurane/oxygen and a burr hole was drilled in the skull. A cannula (ALZET brain infusion kit II, Alza Scientific Products, Palo Alto, Calif.) was introduced into the right lateral ventricle at stereotaxic coordinates 0.6 mm posterior and 1.2 mm lateral to bregma and 4.0 mm deep to the pial surface. The cannula was held in place with cyanoacrylate and the catheter was attached to a subcutaneous osmotic minipump (Alzet 2ML4). The pump delivered 2.5 μl/hr for 28 days of a 1.2 mg/ml solution of sNgR310-Fc or rat IgG in PBS (control mice received rat IgG since both the NgR and the Pc moiety were of rat origin). Pumps were replaced after 28 days and connected to the same cannula. The total dose of protein infused was 2.5 mg per mouse over 56 days. At the end of this period, mice were sacrificed and brain AB levels were measured using an ELISA kit from Biosource International according to the manufacturer's instructions. Aβ deposition into amyloid plaques was assessed by anti-Aβ immunohistochemistry as follows. Aβ plaques in sagittal sections of 4% paraformaldehyde fixed brain were detected immunohistologically with anti-Aβ(1-17) 6E10 antibody after 0.1 M formic acid treatment for antigen recovery. Plaque area was quantitated using NIH Image as a percentage of cerebral cortical area for 3 sections from each animal.

[3] = molecular target: T1, NgR (Homo sapiens, UniProt Q9BZR6); assay: AP-Aβ(1-28) fusion protein binding to NgR-expressing COS cells; conditions: not to vector-transfected COS cells
T1 construct: expressed in transfected cells; host or cells: COS cells
T1 sequence (Q9BZR6 27-473): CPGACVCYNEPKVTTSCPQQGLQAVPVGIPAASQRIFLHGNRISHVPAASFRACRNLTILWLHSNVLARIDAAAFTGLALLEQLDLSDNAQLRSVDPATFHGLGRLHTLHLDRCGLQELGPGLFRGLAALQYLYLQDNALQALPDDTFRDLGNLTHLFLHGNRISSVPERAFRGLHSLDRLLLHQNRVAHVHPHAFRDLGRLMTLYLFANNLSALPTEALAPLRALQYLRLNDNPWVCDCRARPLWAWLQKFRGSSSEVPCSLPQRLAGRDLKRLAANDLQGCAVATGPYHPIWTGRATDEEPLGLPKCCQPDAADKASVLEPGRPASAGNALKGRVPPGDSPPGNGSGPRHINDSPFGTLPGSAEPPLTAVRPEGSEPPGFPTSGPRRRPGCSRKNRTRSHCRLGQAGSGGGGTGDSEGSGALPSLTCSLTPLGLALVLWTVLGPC
Description: We then investigated whether the Aβ region of APP is involved in its interaction with NgR—including whether the fibrillogenic Aβ42-3 peptide binds NgR. We created two fusion protein constructs containing alkaline phosphatase (AP) and the hydrophilic region of Aβ (amino acids 1-28) by fusing the coding sequence in frame with the signal sequence-6×His-placental alkaline phosphatase (AP) sequence of the vector pAP-6 (Nakamura et al., Neuron 2: 1093-1100, 1988). The AP-Aβ and Aβ-AP proteins both bound to NgR-expressing COS cells but not to vector-transfected COS cells. This binding was saturable with an apparent Kd of 60 nM. The interaction also was detected using purified Biotin-Aβ(1-40) in an ELISA-type assay with immobilized NgR.

| Molecule | binding of Aβ peptides [1] | deposition of immunoreactive Aβ into plaque ([2]; right lateral ventricle, vs rat IgG, anti-Aβ immunohistochemistry) | decrease of total level of Aβ(1-40) in the brain ([2]; right lateral ventricle, ELISA) | decrease of total level of Aβ(1-42) in the brain ([2]; right lateral ventricle, ELISA) | sAPPα levels in the brains ([2]; immunoprecipitation and immunoblot) | binding to NgR-expressing COS cells [3] |
| --- | --- | --- | --- | --- | --- | --- |
| sNgR344-Fc: rat soluble NgR 344 Fc fusion (protein, left off: a dimerising Fc or GST, rat soluble NgR 344 Fc fusion) CPGACVCYNEPKVTTSRPQQGLQAVPAGIPASSQRIFLHGNRISYVPAASFQSCRNLTILWLHSNALAGIDAAAFTGLTLLEQLDLSDNAQLRVVDPTTFRGLGHLHTLHLDRCGLQELGPGLFRGLAALQYLYLQDNNLQALPDNTFRDLGNLTHLFLHGNRIPSVPEHAFRGLHSLDRLLLHQNHVARVHPHAFRDLGRLMTLYLFANNLSMLPAEVLVPLRSLQYLRLNDNPWVCDCRARPLWAWLQKFRGSSSGVPSNLPQRLAGRDLKRLATSDLEGCAVASGPFRPFQTNQLTDEELLGLPKCCQPDAADKA | bind |  |  |  |  |  |
| sNgR310-Fc: contains the entire LRR ligand-binding of the NgR fused to the Fc portion of IgG; NgR and Fc of rat origin (protein, left off: a dimerising Fc or GST, NgR and Fc of rat origin) CPGACVCYNEPKVTTSRPQQGLQAVPAGIPASSQRIFLHGNRISYVPAASFQSCRNLTILWLHSNALAGIDAAAFTGLTLLEQLDLSDNAQLRVVDPTTFRGLGHLHTLHLDRCGLQELGPGLFRGLAALQYLYLQDNNLQALPDNTFRDLGNLTHLFLHGNRIPSVPEHAFRGLHSLDRLLLHQNHVARVHPHAFRDLGRLMTLYLFANNLSMLPAEVLVPLRSLQYLRLNDNPWVCDCRARPLWAWLQKFRGSSSGVPSNLPQRLAGRDLKRLATSDLEGCA | bind | significantly reduced | 50% | 50% | decreased |  |
| AP-Aβ: fusion protein of alkaline phosphatase (AP) and the hydrophilic region of Aβ (amino acids 1-28) (protein) HHHHHHIIPVEEENPDFWNREAAEALGAAKKLQPAQTAAKNLIIFLGDGMGVSTVTAARILKGQKKDKLGPEIPLAMDRFPYVALSKTYNVDKHVPDSGATATAYLCGVKGNFQTIGLSAAARFNQCNTTRGNEVISVMNRAKKAGKSVGVVTTTRVQHASPAGTYAHTVNRNWYSDADVPASARQEGCQDIATQLISNMDIDVILGGGRKYMFRMGTPDPEYPDDYSQGGTRLDGKNLVQEWLAKRQGARYVWNRTELMQASLDPSVTHLMGLFEPGDMKYEIHRDSTLDPSLMEMTEAALRLLSRNPRGFFLFVEGGRIDHGHHESRAYRALTETIMFDDAIERAGQLTSEEDTLSLVTADHSHVFSFGGYPLRGSSIFGLAPGKARDRKAYTVLLYGNGPGYVLKDGARPDVTESESGSPEYRQQSAVPLDEETHAGEDVAVFARGPQAHLVHGVQEQTFIAHVMAFAACLEPYTACDLAPPAGTTDAAHPGDAEFRHDSGYEVHHQKLVFFAEDVGSNK |  |  |  |  |  | bound |
